Measured values: patent publication US20250340631A1

Columns and labels:
human CLDN18.2 (human) [1] = test: competition FACS on HEK293/hCLDN18.2 cells; competitor 10 nM biotinylated PR000400; isotype is the reference of the formula
human CLDN18.2 (human) [2] = test: competition FACS on HEK293/hCLDN18.2 cells; competitor 200 nM biotinylated PR004549; isotype is the reference of the formula
[3] = biological target: Biotinylated murine CD3E&D (murine) (UniProt P22646); test: BLI (Octet), biotinylated CD3 on SA sensor, 1:1 global fit
Biotinylated murine CD3E&D (murine), sequence (P22646 22-108, chain 1 of 2): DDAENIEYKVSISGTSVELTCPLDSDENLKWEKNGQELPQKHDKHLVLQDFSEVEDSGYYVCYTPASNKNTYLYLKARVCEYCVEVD
Biotinylated murine CD3E&D (murine), sequence (P04235 22-105, chain 2 of 2, further chain): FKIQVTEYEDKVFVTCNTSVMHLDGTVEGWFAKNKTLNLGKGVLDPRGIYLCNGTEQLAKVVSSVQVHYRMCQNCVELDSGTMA

Row | Maximum inhibition rate (%) (human CLDN18.2 (human) [1]) | Maximum inhibition rate (%) (human CLDN18.2 (human) [2]) | Kd [3] [pM] | koff [3] [s⁻¹] | kon [3] [M⁻¹ s⁻¹] | Substance
1 | 0 | 0 |  |  |  | Iso hIgG1 (CrownBio, C0001-4) (antibody)
2 |  |  | 171 | 0.000137 | 803000 | anti-CD3e 48-2B (santa cruz biotechnology, SC-1174) (antibody)
